In patent US20260123609A1:

Columns and labels:
[1] = molecular target: humanized CD98HC protein (human/mouse chimeric (human amino acids 215-630 of SEQ ID NO: 2 in place of mouse amino acids 147-565 of SEQ ID NO: 1)) (UniProt P08195); assay: flow cytometry, spleen B cells (mCD45+ mCD19+) of CD98HC humanized homozygous mouse (H/H)
[2] = molecular target: mouse CD98HC (NP_001154885.1) (mouse) (UniProt P10852); assay: flow cytometry, spleen B cells (mCD45+ mCD19+) of wild-type C57BL/6 mouse
[3] = molecular target: mouse CD98HC (NP_001154885.1) (mouse) (UniProt P10852); assay: flow cytometry, spleen T cells (mCD45+ mTCR β+) of wild-type C57BL/6 mouse
[4] = molecular target: humanized CD98HC protein (human/mouse chimeric (human amino acids 215-630 of SEQ ID NO: 2 in place of mouse amino acids 147-565 of SEQ ID NO: 1)) (UniProt P08195); assay: flow cytometry, spleen T cells (mCD45+ mTCR β+) of CD98HC humanized homozygous mouse (H/H)

UniProt P10852, sequence (P10852 other isoform, or with tags, fused parts or gaps): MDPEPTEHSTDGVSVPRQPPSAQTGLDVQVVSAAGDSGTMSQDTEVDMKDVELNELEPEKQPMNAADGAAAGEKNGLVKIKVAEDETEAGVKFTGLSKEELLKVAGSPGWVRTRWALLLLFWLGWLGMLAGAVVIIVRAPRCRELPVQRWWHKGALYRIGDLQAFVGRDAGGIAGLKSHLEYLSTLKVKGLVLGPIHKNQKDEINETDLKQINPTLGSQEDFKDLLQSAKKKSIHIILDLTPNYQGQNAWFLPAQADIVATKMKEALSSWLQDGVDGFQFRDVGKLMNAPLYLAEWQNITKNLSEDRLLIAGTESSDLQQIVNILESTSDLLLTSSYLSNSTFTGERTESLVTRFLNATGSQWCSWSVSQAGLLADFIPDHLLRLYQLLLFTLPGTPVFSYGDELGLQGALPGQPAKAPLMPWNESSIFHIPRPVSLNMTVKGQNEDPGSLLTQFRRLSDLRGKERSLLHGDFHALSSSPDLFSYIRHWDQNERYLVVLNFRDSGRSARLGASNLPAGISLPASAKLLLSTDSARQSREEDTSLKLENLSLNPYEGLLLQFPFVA
UniProt P08195, sequence (P08195 other isoform, or with tags, fused parts or gaps mutant limits assumed): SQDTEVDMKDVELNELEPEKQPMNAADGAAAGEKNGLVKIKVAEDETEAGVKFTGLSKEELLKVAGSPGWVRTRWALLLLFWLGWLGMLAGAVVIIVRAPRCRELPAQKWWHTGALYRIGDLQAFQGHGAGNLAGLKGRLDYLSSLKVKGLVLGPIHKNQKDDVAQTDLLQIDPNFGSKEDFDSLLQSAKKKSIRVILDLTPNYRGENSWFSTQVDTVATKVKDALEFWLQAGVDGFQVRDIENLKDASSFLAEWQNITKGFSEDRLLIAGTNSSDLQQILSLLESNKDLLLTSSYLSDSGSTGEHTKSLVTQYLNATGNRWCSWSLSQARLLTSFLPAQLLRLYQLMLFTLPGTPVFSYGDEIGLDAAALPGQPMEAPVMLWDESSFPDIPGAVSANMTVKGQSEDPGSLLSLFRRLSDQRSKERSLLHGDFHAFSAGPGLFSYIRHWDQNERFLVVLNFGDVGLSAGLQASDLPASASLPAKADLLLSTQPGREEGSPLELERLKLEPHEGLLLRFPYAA

percentage of positive cells [1] [%]	percentage of positive cells [2] [%]	percentage of positive cells [3] [%]	percentage of positive cells [4] [%]	Substance
0.3	17.2	14.7	0.27	APC anti-mouse CD98 (4F2) Antibody (Biolegend, Catalog number: 128211)
27.1	0.82	0.45	27.6	FITC anti-human CD98 Antibody (Biolegend, Catalog number: 315603)
